Columns and labels:
[1] = target: OsWRKY53SD S43D;S72D;S77D;S89D;S96D;S108D (Oryza sativa (rice)) (UniProt A7BEY7); experiment: EMSA; conditions: 12 mM HEPES-KOH pH 8.0, 60 mM KCl, 4 mM MgCl2, 1 mM EDTA, 12% glycerol, 1 mM DTT, 2.5 mM PMSF, 0.1 ug protein in 20 ul, 20 min on ice; 6% PAGE in 1x TBE at …
[2] = target: OsWRKY53SA S43A;S72A;S77A;S89A;S96A;S108A (Oryza sativa (rice)) (UniProt A7BEY7); experiment: EMSA; conditions: 12 mM HEPES-KOH pH 8.0, 60 mM KCl, 4 mM MgCl2, 1 mM EDTA, 12% glycerol, 1 mM DTT, 2.5 mM PMSF, 0.1 ug protein in 20 ul, 20 min on ice; 6% PAGE in 1x TBE at …
Sequence of OsWRKY53SA S43A;S72A;S77A;S89A;S96A;S108A (Oryza sativa (rice)) (A7BEY7 entry or part of it S43A S72A S77A S89A S96A S108A): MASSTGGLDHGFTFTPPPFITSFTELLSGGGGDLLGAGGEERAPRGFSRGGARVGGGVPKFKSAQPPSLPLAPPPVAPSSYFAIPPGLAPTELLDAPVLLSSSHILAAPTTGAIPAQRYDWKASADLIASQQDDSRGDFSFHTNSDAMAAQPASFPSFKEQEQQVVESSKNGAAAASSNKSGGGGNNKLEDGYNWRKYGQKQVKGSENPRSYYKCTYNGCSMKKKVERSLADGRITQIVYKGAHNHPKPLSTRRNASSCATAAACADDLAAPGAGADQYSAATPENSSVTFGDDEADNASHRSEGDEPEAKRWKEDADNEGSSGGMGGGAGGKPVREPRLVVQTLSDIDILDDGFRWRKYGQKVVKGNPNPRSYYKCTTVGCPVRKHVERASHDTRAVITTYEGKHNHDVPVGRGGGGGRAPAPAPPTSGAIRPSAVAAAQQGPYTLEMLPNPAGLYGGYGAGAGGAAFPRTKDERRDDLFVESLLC

Sequence of OsWRKY53SD S43D;S72D;S77D;S89D;S96D;S108D (Oryza sativa (rice)) (A7BEY7 entry or part of it S43D S72D S77D S89D S96D S108D): as the sequence (A7BEY7 entry or part of it S43A S72A S77A S89A S96A S108A) above, with A43D, A72D, A77D, A89D, A96D, A108D counted along it

For “TTTGGGGATGCTTCGGCGAAGGGGGTGAGGTCAAAGCTCGTGCGGTTTGACCGGTCAGACGAGGCGGCTGAGGCTCGCGC (double strand) [W-box probe (W)]”, the binding [1] was “binds” and the binding [2] was “binds”.
